Test results taken from patent publication US20190030139.

Experiments:
USP10 S76 peptide = tested on: T1, USP10 S76 peptide
T1 sequence: TLPRTPSYSISST

| Substance | in vitro deubiquitination assay, immunoblot (FIG. 4C) (Ubiquitinated AMPKα1) | in vitro deubiquitination assay, immunoblot (FIG. 3H) (Ubiquitinated AMPKα2) | initial rate of phosphorylation (in vitro kinase assay, 32P incorporation) (SAMS peptide (Abcam)) [pmol/min/reaction mix] | maximal stoichiometry of phosphorylation (SAMS peptide (Abcam)) [mol/mol] | initial rate of phosphorylation (in vitro kinase assay, 32P incorporation) (USP10 S76 peptide) [pmol/min/reaction mix] | maximal stoichiometry of phosphorylation (USP10 S76 peptide) [mol/mol] |
| --- | --- | --- | --- | --- | --- | --- |
| USP10CA (catalytically inactive CA mutant, recombinant) | the catalytically inactive CA mutant could not | the catalytically inactive CA mutant could not |  |  |  |  |
| Purified AMPK (Upstate Biotechnology) |  |  | 95±18 | 0.35±0.02 | 155±36 | 0.46±0.04 |
